# Data: US20110262464A1, “Compositions, Kits, and Methods for the Diagnosis, Prognosis, and Monitoring of Cancer Using GOLPH3” (DANAFARBER CANCER INSTITUTE, INC., priority 2008, published 2011)
# B1: EGF: epidermal growth factor (Invitrogen), 100 ng/ml for stimulation assays (protein, UniProt P01133 23-1207, looked up)
# Pro-epidermal growth factor: PQHWSCPEGTLAGNGNSTCVGPAPFLIFSHGNSIFRIDTEGTNYEQLVVDAGVSVIMDFHYNEKRIYWVDLERQLLQRVFLNGSRQERVCNIEKNVSGMAINWINEEVIWSNQQEGIITVTDMKGNNSHILLSALKYPANVAVDPVERFIFWSSEVAGSLYRADLDGVGVKALLETSEKITAVSLDVLDKRLFWIQYNREGSNSLICSCDYDGGSVHISKHPTQHNLFAMSLFGDRIFYSTWKMKTIWIANKHTGKDMVRINLHSSFVPLGELKVVHPLAQPKAEDDTWEPEQKLCKLRKGNCSSTVCGQDLQSHLCMCAEGYALSRDRKYCEDVNECAFWNHGCTLGCKNTPGSYYCTCPVGFVLLPDGKRCHQLVSCPRNVSECSHDCVLTSEGPLCFCPEGSVLERDGKTCSGCSSPDNGGCSQLCVPLSPVSWECDCFPGYDLQLDEKSCAASGPQPFLLFANSQDIRHMHFDGTDYGTLLSQQMGMVYALDHDPVENKIYFAHTALKWIERANMDGSQRERLIEEGVDVPEGLAVDWIGRRFYWTDRGKSLIGRSDLNGKRSKIITKENISQPRGIAVHPMAKRLFWTDTGINPRIESSSLQGLGRLVIASSDLIWPSGITIDFLTDKLYWCDAKQSVIEMANLDGSKRRRLTQNDVGHPFAVAVFEDYVWFSDWAMPSVMRVNKRTGKDRVRLQGSMLKPSSLVVVHPLAKPGADPCLYQNGGCEHICKKRLGTAWCSCREGFMKASDGKTCLALDGHQLLAGGEVDLKNQVTPLDILSKTRVSEDNITESQHMLVAEIMVSDQDDCAPVGCSMYARCISEGEDATCQCLKGFAGDGKLCSDIDECEMGVPVCPPASSKCINTEGGYVCRCSEGYQGDGIHCLDIDECQLGEHSCGENASCTNTEGGYTCMCAGRLSEPGLICPDSTPPPHLREDDHHYSVRNSDSECPLSHDGYCLHDGVCMYIEALDKYACNCVVGYIGERCQYRDLKWWELRHAGHGQQQKVIVVAVCVVVLVMLLLLSLWGAHYYRTQKLLSKNPKNPYEESSRDVRSRRPADTEDGMSSCPQPWFVVIKEHQDLKNGGQPVAGEDGQAADGSMQPTSWRQEPQLCGMGTEQGCWIPVSSDKGSCPQVMERSFHMPSYGTQTLEGGVEKPHSLLSANPLWQQRALDPPHQMELTQ
# modifications: Pro-epidermal growth factor
# notes: epidermal growth factor (Invitrogen), 100 ng/ml for stimulation assays
# Tested on: GOLPH3 localization at the Golgi in A549 cells
# Experiment: Immunofluorescence of GOLPH3 localization
# Assay type: cell-based, human
# Settings: A549 treated with EGF at specific time points
# Method: For immunofluorescence studies, cells were cultured on cover slips, followed by fixation for 15 min at RT in 4% paraformaldehyde in PBS, permeabilization for 10 min RT in 0.1% Triton X-100/PBS and blocking 1 hr RT in 10% goat or donkey serum/PBS. Slides were incubated 1 hr RT with the following antibodies: mouse anti-HA (1:100, Cell Signaling); rabbit anti-TGN46 (1:500; Abcam), goat anti-VPS35 (1:200; Abcam) and mouse anti-GOLPH3 (1:300). Slides were stained for 1 hour RT with the corresponding Alexa Flour secondary antibodies (Invitrogen). Cover slips were stained with DAPI (Sigma) and mounted with mounting medium. Microscopic images were obtained with a Nikon inverted Ti microscope equipped with Yokogawa spinning disk confocal/TIRF system and a Hamamatsu Orca ER firewire digital CCD camera using constant exposure times for each channel in individual experiments. Images were compiled and false-colored with Adobe Photoshop using identical settings for each color. Magnification is 100× unless otherwise indicated.
# In order to determine whether or not ARF4 might regulate GOLPH3 localization at the Golgi apparatus, ARF4 siRNA were transfected into A549 cells.
molecule,measurement,value
B1,GOLPH3 localization at the Golgi,redistribution of GOLPH3 from the Golgi
